# Data reported in patent US20210063414A1, “METHODS FOR PREVENTING AND/OR TREATING BONE LOSS CONDITIONS BY MODULATING IRISIN” (Dana-Farber Cancer Institute, Inc., priority 2018, published 2021).
# T1: MLO-Y4 cell surface proteins (Mus musculus, UniProt Q791V5)
# T1 construct: endogenous in cells; host or cells: MLO-Y4
# T1 sequence (Q791V5 1-303): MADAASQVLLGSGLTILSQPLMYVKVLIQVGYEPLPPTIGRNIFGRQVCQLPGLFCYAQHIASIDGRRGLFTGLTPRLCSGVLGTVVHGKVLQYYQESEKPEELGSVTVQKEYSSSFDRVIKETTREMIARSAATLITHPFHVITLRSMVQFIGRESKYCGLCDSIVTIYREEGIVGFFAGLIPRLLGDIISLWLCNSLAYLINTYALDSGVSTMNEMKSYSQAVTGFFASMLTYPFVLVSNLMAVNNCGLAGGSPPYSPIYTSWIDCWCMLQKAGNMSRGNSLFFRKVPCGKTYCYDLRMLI
# T2: MLO-Y4 cell surface proteins (Mus musculus, UniProt Q8JZN5)
# T2 construct: endogenous in cells; host or cells: MLO-Y4
# T2 sequence (Q8JZN5 42-625): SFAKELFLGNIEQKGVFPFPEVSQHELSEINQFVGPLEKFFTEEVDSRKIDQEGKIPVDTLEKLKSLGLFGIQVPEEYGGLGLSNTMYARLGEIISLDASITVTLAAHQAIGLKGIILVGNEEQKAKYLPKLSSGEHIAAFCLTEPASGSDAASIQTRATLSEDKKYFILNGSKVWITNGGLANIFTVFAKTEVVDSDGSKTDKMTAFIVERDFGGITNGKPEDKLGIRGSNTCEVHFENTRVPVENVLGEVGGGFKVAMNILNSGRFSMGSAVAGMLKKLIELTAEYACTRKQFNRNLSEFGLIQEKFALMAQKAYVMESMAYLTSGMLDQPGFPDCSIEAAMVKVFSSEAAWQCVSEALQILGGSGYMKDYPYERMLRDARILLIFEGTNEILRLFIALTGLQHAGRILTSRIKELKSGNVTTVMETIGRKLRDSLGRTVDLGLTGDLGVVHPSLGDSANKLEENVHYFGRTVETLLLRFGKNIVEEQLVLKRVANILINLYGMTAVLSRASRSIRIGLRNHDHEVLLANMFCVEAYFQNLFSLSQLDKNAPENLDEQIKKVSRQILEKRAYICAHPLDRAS
# B1: irisin: secreted cleaved form of FNDC5; recombinant human/mouse irisin with C-terminal his tag produced in HEK293 cells (protein)
# chain: DSPSAPVNVTVRHLKANSAVVSWDVLEDEVVIGFAISQQKKDVRMLRFIQEVNTTTRSCALWDLEEDTEYIVHVQAISIQGQSPASEPVLFKTPREAEKMASKNKDEVTMKE
# modifications: left off: small tags and cut ends
# notes: secreted cleaved form of FNDC5; recombinant human/mouse irisin with C-terminal his tag produced in HEK293 cells
# Tests used:
# Assay in all cases: Crosslinking/co-immunoprecipitation/mass spectrometry (TMT quantitative proteomics) to identify irisin receptors
# Assay type in all cases: binding
# [1] = molecular target: T1, MLO-Y4 cell surface proteins; conditions: co-precipitated protein Mteh2 (MTCH2_MOUSE)
# In short: (§1)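 Mouse MLO-Y4 cells were switched to serum-free FreeStyle medium for 4 h, chilled, then exposed to 10 nM His-tagged irisin (or adipsin as control) for 20 min. Cells were crosslinked with 1.5 mM DTSSP (30 min, ice), and bound proteins were pulled down on Ni-NTA and eluted with 250 mM imidazole. Eluates were separated by SDS-PAGE, trypsin-digested in gel, TMT 6-plex labelled and quantified by MS3-based LC-MS/MS on an Orbitrap Fusion Lumos.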
# [2] = molecular target: T2, MLO-Y4 cell surface proteins; conditions: co-precipitated protein Acad9 (ACAD9_MOUSE)
# In short: as §1
# [3] = molecular target: T3, MLO-Y4 cell surface proteins (Mus musculus, UniProt P63038); conditions: co-precipitated protein Hspd1 (CH60_MOUSE)
# T3 construct: endogenous in cells; host or cells: MLO-Y4
# In short: as §1
# T3 sequence (P63038 27-573): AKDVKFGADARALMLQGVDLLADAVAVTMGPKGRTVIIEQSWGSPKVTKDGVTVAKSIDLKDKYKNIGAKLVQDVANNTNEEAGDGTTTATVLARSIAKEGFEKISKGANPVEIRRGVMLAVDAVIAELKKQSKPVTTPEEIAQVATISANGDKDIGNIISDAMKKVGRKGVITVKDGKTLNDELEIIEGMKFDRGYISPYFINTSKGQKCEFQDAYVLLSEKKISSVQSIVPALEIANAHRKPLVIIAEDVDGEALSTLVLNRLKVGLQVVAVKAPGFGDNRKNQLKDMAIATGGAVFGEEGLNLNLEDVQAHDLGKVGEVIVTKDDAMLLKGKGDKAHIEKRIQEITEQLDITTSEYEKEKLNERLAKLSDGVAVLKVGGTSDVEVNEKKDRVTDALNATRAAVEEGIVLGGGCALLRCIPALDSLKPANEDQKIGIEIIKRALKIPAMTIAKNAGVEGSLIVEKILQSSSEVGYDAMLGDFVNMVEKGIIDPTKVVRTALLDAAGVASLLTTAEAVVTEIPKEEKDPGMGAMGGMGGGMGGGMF
molecule,measurement,setting,value
B1,TMT signal-to-noise ratio,[1],5.766
same,irisin/adipsin TMT signal-to-noise ratio,[1],0.057
same,TMT signal-to-noise ratio,[2],61.8219
same,irisin/adipsin TMT signal-to-noise ratio,[2],0.486
same,TMT signal-to-noise ratio,[3],2002.08
same,irisin/adipsin TMT signal-to-noise ratio,[3],0.470
